# In patent US20140087995A1 (published 2014):
# Numbered stars: 1 amine (or outer) side, 2 acyl side, 3 side chain; on linkers, the order of the positions; unused ones are H or OH. Bridge positions count the residues as written; N and C are the ends. Side chains are listed from the residue outwards. Ends that are not written are not given here. * marks the point of attachment. C20 diacid = O=C(O)CCCCCCCCCCCCCCCCCCC(=O)*; γGlu = O=C(O)[C@H](CCC(=O)[*:2])N[*:1]
# B1: N^ε-[(4S)-4-carboxy-4-(19-carboxynonadecanoylamino)butanoyl]Lys[Arg1,Arg17,Pro21,Pro27,His35]-h-amylin (peptide)
# peptide: K([γGlu-C20 diacid])RCNTATCATQRLANFLRHSSPNFGAIPSSTNVGSHTY-NH2
# modifications: disulfide 3-8; N-terminus assumed
# SMILES: CC[C@H](C)[C@H](NC(=O)[C@H](C)NC(=O)CNC(=O)[C@H](Cc1ccccc1)NC(=O)[C@H](CC(N)=O)NC(=O)[C@@H]1CCCN1C(=O)[C@H](CO)NC(=O)[C@H](CO)NC(=O)[C@H](Cc1c[nH]cn1)NC(=O)[C@H](CCCNC(=N)N)NC(=O)[C@H](CC(C)C)NC(=O)[C@H](Cc1ccccc1)NC(=O)[C@H](CC(N)=O)NC(=O)[C@H](C)NC(=O)[C@H](CC(C)C)NC(=O)[C@H](CCCNC(=N)N)NC(=O)[C@H](CCC(N)=O)NC(=O)[C@@H](NC(=O)[C@H](C)NC(=O)[C@@H]1CSSC[C@H](NC(=O)[C@H](CCCNC(=N)N)NC(=O)[C@@H](N)CCCCNC(=O)CC[C@H](NC(=O)CCCCCCCCCCCCCCCCCCC(=O)O)C(=O)O)C(=O)N[C@@H](CC(N)=O)C(=O)N[C@@H]([C@@H](C)O)C(=O)N[C@@H](C)C(=O)N[C@@H]([C@@H](C)O)C(=O)N1)[C@@H](C)O)C(=O)N1CCC[C@H]1C(=O)N[C@@H](CO)C(=O)N[C@@H](CO)C(=O)N[C@H](C(=O)N[C@@H](CC(N)=O)C(=O)N[C@H](C(=O)NCC(=O)N[C@@H](CO)C(=O)N[C@@H](Cc1c[nH]cn1)C(=O)N[C@H](C(=O)N[C@@H](Cc1ccc(O)cc1)C(N)=O)[C@@H](C)O)C(C)C)[C@@H](C)O
# notes: Synthetic analogue, extended by Lys at the N-terminus; also called compound 44
# B2: N^-1-[(4S)-4-carboxy-4-(19-carboxynonadecanoylamino)butanoyl]-Gly[Arg1,Arg17,Pro21,Pro27,His35]-h-amylin (peptide)
# peptide: {C20 diacid-γGlu}-GRCNTATCATQRLANFLRHSSPNFGAIPSSTNVGSHTY-NH2
# modifications: disulfide 3-8
# SMILES: CC[C@H](C)[C@H](NC(=O)[C@H](C)NC(=O)CNC(=O)[C@H](Cc1ccccc1)NC(=O)[C@H](CC(N)=O)NC(=O)[C@@H]1CCCN1C(=O)[C@H](CO)NC(=O)[C@H](CO)NC(=O)[C@H](Cc1c[nH]cn1)NC(=O)[C@H](CCCNC(=N)N)NC(=O)[C@H](CC(C)C)NC(=O)[C@H](Cc1ccccc1)NC(=O)[C@H](CC(N)=O)NC(=O)[C@H](C)NC(=O)[C@H](CC(C)C)NC(=O)[C@H](CCCNC(=N)N)NC(=O)[C@H](CCC(N)=O)NC(=O)[C@@H](NC(=O)[C@H](C)NC(=O)[C@@H]1CSSC[C@H](NC(=O)[C@H](CCCNC(=N)N)NC(=O)CNC(=O)CC[C@H](NC(=O)CCCCCCCCCCCCCCCCCCC(=O)O)C(=O)O)C(=O)N[C@@H](CC(N)=O)C(=O)N[C@@H]([C@@H](C)O)C(=O)N[C@@H](C)C(=O)N[C@@H]([C@@H](C)O)C(=O)N1)[C@@H](C)O)C(=O)N1CCC[C@H]1C(=O)N[C@@H](CO)C(=O)N[C@@H](CO)C(=O)N[C@H](C(=O)N[C@@H](CC(N)=O)C(=O)N[C@H](C(=O)NCC(=O)N[C@@H](CO)C(=O)N[C@@H](Cc1c[nH]cn1)C(=O)N[C@H](C(=O)N[C@@H](Cc1ccc(O)cc1)C(N)=O)[C@@H](C)O)C(C)C)[C@@H](C)O
# notes: Synthetic analogue, extended by Gly at the N-terminus; also called compound 47
# Columns and labels:
# [1] = target: T1, human calcitonin receptor (human, UniProt P30988 25-474); assay: ratio IC50 hCTR / IC50 hAmylin-R of the two SPA competition assays; reference: human amylin receptor
# T1 construct: whole, on cells; Assay used cell membranes of the transfected BHK cells; also called hCTR; hCT
# T1 sequence (looked up): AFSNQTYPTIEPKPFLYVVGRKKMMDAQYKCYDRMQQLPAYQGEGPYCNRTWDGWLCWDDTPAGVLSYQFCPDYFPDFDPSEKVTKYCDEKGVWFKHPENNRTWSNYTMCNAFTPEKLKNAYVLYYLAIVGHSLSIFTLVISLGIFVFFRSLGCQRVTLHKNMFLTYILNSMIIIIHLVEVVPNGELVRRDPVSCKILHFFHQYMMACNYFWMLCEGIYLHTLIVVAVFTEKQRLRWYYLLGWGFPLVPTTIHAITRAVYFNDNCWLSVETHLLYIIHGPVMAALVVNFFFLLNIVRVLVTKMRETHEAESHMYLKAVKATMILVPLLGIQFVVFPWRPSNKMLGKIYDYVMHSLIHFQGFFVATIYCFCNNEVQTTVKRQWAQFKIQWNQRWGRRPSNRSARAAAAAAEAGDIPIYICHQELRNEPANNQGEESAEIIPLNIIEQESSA
# Method in brief: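 Scintillation proximity competition binding on cell membranes at 35 ng/μL with SPA beads, in 50 mM Hepes pH 7.4, 1 mM CaCl2, 5 mM MgCl₂, 0.1% OA, 0.02% Tween20. Incubated 120 min at 25° C with shaking. IC₅₀ from one-site competition fit.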
# [2] = target: T1, human calcitonin receptor; assay: SPA radioligand competition (125I-calcitonin), membranes of BHK cells with human calcitonin receptor
# Method in brief: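 BHK hCTR membranes 35 ng/μL + SPA beads 0.05 mg/well; buffer 50 mM Hepes pH 7.4, 1 mM CaCl2, 5 mM MgCl₂, 0.1% OA, 0.02% Tween20. 120 min, 25° C., shaking. Scintillation count; IC50 by one-site binding competition.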
Binder,Ratio hCT/hAmylin binding [1],IC50 [2] [nM]
B1,17.7,4.87
B2,44.9,15.5
